Results as given in patent US6683059B1, “Mini-E1A gene and gene products” (priority 1996, dated 2004).

System: subclone of SKOV-3.ip1
Assay: long-term survival study, E1A-Cterm lipid:DNA complex, aggressive SKOV-3.ip1 subclone in nude mice
Format: in vivo, mouse
Procedure: FIG. 9. Comparison of tumor suppressor activity of full-length E1A and mini-E1ACterm. Mice bearing tumors from an aggressive subclone of the SKOV-3.ip1 cell line were injected with the treatment compounds indicated. […] As also shown, while all nine control animals were dead by that time, none of the animals receiving full-length E1A or mini-E1ACterm had died. Mini-E1ACterm was equivalent to full-length E1A in tumor suppression.
Long-term survival studies were performed using the E1A-Cterm mini-gene in a tumor engraftment model and DNA-lipid formulations as described above. In this study, it appears that the subclone of SKOV-3.ip1 used may have been even more aggressive in tumor formation than the SKOV-3.ip1 parent used to induce tumors in the nude mice since no control mice survived for more than about 35 days. The protocol was otherwise as in the long-term study above except that: (i) 10 mice were used in each group receiving E1A formulations and 9 mice were used in the control group; (ii) 5% dextrose was used for control injections; and (iii) a lipid:DNA ratio of 10:1 w as used for the treatment formulations however, as above, each injection contained 15 μg of DNA.

B1: mini-E1ACterm: mini-E1A construct in pcDNA1.1 encoding E1A 186-289; expected polypeptide about 80 amino acids, 209-289, SEQ ID NO:1 (nucleic acid)
chain: CCTGTGTCTGAACCTGAGCCTGAGCCCGAGCCAGAACCGGAGCCTGCAAGACCTACCCGCCGTCCTAAAATGGCGCCTGCTATCCTGAGACGCCCGACATCACCTGTGTCTAGAGAATGCAATAGTAGTACGGATAGCGTGGACTCCGGTCCTTCTAACACACCTCCTGAGAGACACCCGGTGGTCCCGCTGTGCCCCATTAAACCAGTTGCCGTGAGAGTTGGTGGGCGTCGCCAGGCTGTGGAATGTATCGAGGACTTGCTTAACGAGCCTGGGCAACCTTTGGACTTGAGCTGTAAACGCCCCAGGCCATAA
modifications: pcDNA1.1 vector
- animals alive when the last dextrose control mouse died (about day 35, lipid:DNA 10:1, 15 μg DNA per injection, 10 mice per group): 100%
- tumor masses in surviving mice after 21 weeks (visual inspection, the 4 surviving mice): no signs of such tumor masses
